The results in this text go back to patent US20200299408A1 (Genentech, published 2020).

“And” between values parts separate entries of the source, which are not always exact repeats. Identical values can stand only once.

For assay [1], the target named is T1, single chain human CD3ε-26mer-CD3γ (CD3εγ) (human).
T1 construct: also called human CD3εγ
T1 chain: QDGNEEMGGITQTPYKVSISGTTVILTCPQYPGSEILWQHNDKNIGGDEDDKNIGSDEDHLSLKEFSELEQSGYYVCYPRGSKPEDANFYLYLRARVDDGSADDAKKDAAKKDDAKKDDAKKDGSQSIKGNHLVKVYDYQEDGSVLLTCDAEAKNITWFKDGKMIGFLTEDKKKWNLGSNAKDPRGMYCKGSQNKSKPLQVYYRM
Description: Biacore single cycle kinetics: Fab captured by anti-human Fab, human CD3εγ injected (3-250 nM). From the text: In addition, position 95 in HVR-H3 was also mutated to serine, threonine, or glutamate. Variants with these single point mutations were expressed as Fabs in HEK293 cells and initially screened with a single cycle kinetics method on a Biacore T100. Selected variants were also scaled up and purified for a conventional multi-cycle kinetics method. For single cycle kinetics, Biacore Series S CM5 sensor chips were immobilized with anti-human Fab antibodies (Human Fab capture kit, GE Healthcare). […] For conventional multi-cycle kinetics, human CD3εγ, cyno CD3εγ, or a 27-mer peptide were immobilized on Biacore Series S CM5 sensor chip using the amine coupling kit from Biacore. Serial 3-fold dilutions of each Fab variant were injected at a flow rate of 30 μl/min. Each sample was analyzed with a protocol of 3-minute association and 3-minute dissociation. In both methods, the Biacore chips were regenerated using 10 mM Glycine (pH 1.7). Binding response was corrected by blank subtraction and a 1:1Languir model of simultaneous fitting of kₒₙ and koff was used for kinetics analysis.

Assay [2] has as its target T2, human CD3 on T cells (human, UniProt P07766 22-207).
T2 construct: whole, on cells; On cells CD3ε stands in the CD3/TCR complex; also called CD3 antigen; CD3ε
Kind of assay: FACS on Jurkat cells (CD3); EC50 table for the curves of FIGS. 21A-21B; source CHO (N297G). As for the experimental part:
(§1) Binding affinities for the each of the CD3/CD20 TDBs were tested by Biacore or FACS analysis, as described above for the anti-CD3 antibodies. Briefly, for Biacore binding assays, human CD3εγ was immobilized on Biacore Series S CM5 sensor chip using the amine coupling kit from Biacore and CD3/CD20 TDBs or Fab variants thereof were in the flow through. For FACS binding assays, either Bjab cells (for B cell antigens) or Jurkat cells (for CD3 antigen) were incubated with various concentrations of TDB antibodies at 4° C. for 30 minutes, then cells were washed and incubated with 2nd antibody (anti-huIgG-PE; BD Bioscience) for another 15 minutes, before cells were washed again and ready for FACS analysis.

The target of assay [3] is T1, single chain human CD3ε-26mer-CD3γ …. Kind of assay: Biacore, human CD3εγ on chip, TDB in flow through. As for the experimental part:
as §1

B1: hu38E4.v1 H3 mutant F100bA (Fab, V domains shown)
VH: EVQLVQSGAEVKKPGASVKVSCKASGFTFTSYYIHWVRQAPGQGLEWIGWIYPENDNTKYNEKFKDRVTITADTSTSTAYLELSSLRSEDTAVYYCARDGYSRYYADYWGQGTLVTVSS
VL: DIVMTQSPDSLAVSLGERATINCKSSQSLLNSRTRKNYLAWYQQKPGQSPKLLIYWTSTRKSGVPDRFSGSGSGTDFTLTISSLQAEDVAVYYCKQSFILRTFGQGTKVEIK
notes: copies: 1 + 1
On to B1, for which the binding result in assay [1] was “no binding (tested: 250 nM CD3εγ (p-1386; not on the sheet))”.

B2: 38E4v2 CHO (bispecific antibody)
anti-CD20 arm heavy chain: EVQLVESGGGLVQPGGSLRLSCAASGYTFTSYNMHWVRQAPGKGLEWVGAIYPGNGDTSYNQKFKGRFTISVDKSKNTLYLQMNSLRAEDTAVYYCARVVYYSNSYWYFDVWGQGTLVTVSS
anti-CD20 arm light chain: DIQMTQSPSSLSASVGDRVTITCRASSSVSYMHWYQQKPGKAPKPLIYAPSNLASGVPSRFSGSGSGTDFTLTISSLQPEDFATYYCQQWSFNPPTFGQGTKVEIK
anti-CD3 arm heavy chain: EVQLVQSGAEVKKPGASVKVSCKASGFTFTSYYIHWVRQAPGQGLEWIGWIYPENDNTKYNEKFKDRVTITADTSTSTAYLELSSLRSEDTAVYYCARDAYSRYYFDYWGQGTLVTVSS
anti-CD3 arm light chain: DIVMTQSPDSLAVSLGERATINCKSSQSLLNSRTRKNYLAWYQQKPGQSPKLLIYWTSTRKSGVPDRFSGSGSGTDFTLTISSLQAEDVAVYYCKQSFILRTFGQGTKVEIK
notes: also called CD3/CD20 TDB 2H7v16/38E4v2
Consider B2, for which the EC50 in assay [2] was 0.52 µg/mL and ~3.4 nM. Moreover, in assay [3], the Kd is 2.43 nM and 2.4 nM; the koff was determined as 0.00513 s⁻¹; the kon was found to be 2.11e+06 M⁻¹ s⁻¹.

B3: 38E4v4 CHO (bispecific antibody)
anti-CD20 arm heavy chain: EVQLVESGGGLVQPGGSLRLSCAASGYTFTSYNMHWVRQAPGKGLEWVGAIYPGNGDTSYNQKFKGRFTISVDKSKNTLYLQMNSLRAEDTAVYYCARVVYYSNSYWYFDVWGQGTLVTVSS
anti-CD20 arm light chain: DIQMTQSPSSLSASVGDRVTITCRASSSVSYMHWYQQKPGKAPKPLIYAPSNLASGVPSRFSGSGSGTDFTLTISSLQPEDFATYYCQQWSFNPPTFGQGTKVEIK
anti-CD3 arm heavy chain: EVQLVQSGAEVKKPGASVKVSCKASGFTFTSYYIHWVRQAPGQGLEWIGWIYPENDNTKYNEKFKDRVTITADTSTSTAYLELSSLRSEDTAVYYCARDGYSRYYFDYWGQGTLVTVSS
anti-CD3 arm light chain: DIVMTQSPDSLAVSLGERATINCKSSQSLLNSRTRKNYLAWYQQKPGQSPKLLIYWTSTRKSGVPDRFSGSGSGTDFTLTISSLQAEDVAVYYCKASFILRTFGQGTKVEIK
notes: also called CD3/CD20 TDB 2H7v16/38E4v4
Consider B3, for which the EC50 in assay [2] is 3.51 µg/mL and ~23 nM. In addition, in assay [3], the Kd is 137 nM and 136 nM; the koff was found to be 0.0984 s⁻¹; the kon was found to be 721000 M⁻¹ s⁻¹.

B4: 38E4v6 CHO (bispecific antibody)
anti-CD20 arm heavy chain: EVQLVESGGGLVQPGGSLRLSCAASGYTFTSYNMHWVRQAPGKGLEWVGAIYPGNGDTSYNQKFKGRFTISVDKSKNTLYLQMNSLRAEDTAVYYCARVVYYSNSYWYFDVWGQGTLVTVSS
anti-CD20 arm light chain: DIQMTQSPSSLSASVGDRVTITCRASSSVSYMHWYQQKPGKAPKPLIYAPSNLASGVPSRFSGSGSGTDFTLTISSLQPEDFATYYCQQWSFNPPTFGQGTKVEIK
anti-CD3 arm heavy chain: EVQLVQSGAEVKKPGASVKVSCKASGFTFTSYYIHWVRQAPGQGLEWIGWIYPENDNTKYNEKFKDRVTITADTSTSTAYLELSSLRSEDTAVYYCARTGYSRYYFDYWGQGTLVTVSS
anti-CD3 arm light chain: DIVMTQSPDSLAVSLGERATINCKSSQSLLNSRTRKNYLAWYQQKPGQSPKLLIYWTSTRKSGVPDRFSGSGSGTDFTLTISSLQAEDVAVYYCKQSFILRTFGQGTKVEIK
notes: also called CD3/CD20 TDB 2H7v16/38E4v6
In the case of B4, in assay [2], the half-maximal effective concentration (EC50) is 5.56 µg/mL and ~36 nM. Besides, in assay [3], the Kd turned out to be 37600 nM, the koff came out at 0.878 s⁻¹ and the kon was determined as 23400 M⁻¹ s⁻¹.

B5: 38E4v8 CHO (bispecific antibody)
anti-CD20 arm heavy chain: EVQLVESGGGLVQPGGSLRLSCAASGYTFTSYNMHWVRQAPGKGLEWVGAIYPGNGDTSYNQKFKGRFTISVDKSKNTLYLQMNSLRAEDTAVYYCARVVYYSNSYWYFDVWGQGTLVTVSS
anti-CD20 arm light chain: DIQMTQSPSSLSASVGDRVTITCRASSSVSYMHWYQQKPGKAPKPLIYAPSNLASGVPSRFSGSGSGTDFTLTISSLQPEDFATYYCQQWSFNPPTFGQGTKVEIK
anti-CD3 arm heavy chain: EVQLVQSGAEVKKPGASVKVSCKASGFTFTSYYIHWVRQAPGQGLEWIGWIYPENDNTKYNEKFKDRVTITADTSTSTAYLELSSLRSEDTAVYYCARSGYSRYYFDYWGQGTLVTVSS
anti-CD3 arm light chain: DIVMTQSPDSLAVSLGERATINCKSSQSLLNSRTRKNYLAWYQQKPGQSPKLLIYWTSTRKSGVPDRFSGSGSGTDFTLTISSLQAEDVAVYYCKQSFILRTFGQGTKVEIK
notes: also called CD3/CD20 TDB 2H7v16/38E4v8
As for B5, the EC50 in assay [2] is 7.23 µg/mL and ~47 nM. In assay [3], this molecule gave a Kd of 3930 nM, a koff of 0.0443 s⁻¹ and a kon of 11300 M⁻¹ s⁻¹.

B6: 38E4v5 CHO (bispecific antibody)
anti-CD20 arm heavy chain: EVQLVESGGGLVQPGGSLRLSCAASGYTFTSYNMHWVRQAPGKGLEWVGAIYPGNGDTSYNQKFKGRFTISVDKSKNTLYLQMNSLRAEDTAVYYCARVVYYSNSYWYFDVWGQGTLVTVSS
anti-CD20 arm light chain: DIQMTQSPSSLSASVGDRVTITCRASSSVSYMHWYQQKPGKAPKPLIYAPSNLASGVPSRFSGSGSGTDFTLTISSLQPEDFATYYCQQWSFNPPTFGQGTKVEIK
anti-CD3 arm heavy chain: EVQLVQSGAEVKKPGASVKVSCKASGFTFTSYYIHWVRQAPGQGLEWIGWIYPENDNTKYNEKFKDRVTITADTSTSTAYLELSSLRSEDTAVYYCARDGYSRYYFDYWGQGTLVTVSS
anti-CD3 arm light chain: DIVMTQSPDSLAVSLGERATINCKSSQSLLNSRTRKNYLAWYQQKPGQSPKLLIYWTSTRKSGVPDRFSGSGSGTDFTLTISSLQAEDVAVYYCKQSAILRTFGQGTKVEIK
notes: also called CD3/CD20 TDB 2H7v16/38E4v5
Consider B6, for which the EC50 in assay [2] is 4.11 µg/mL and ~27 nM. Moreover, in assay [3], the affinity, expressed as Kd, was 16 nM; the koff came out at 0.0515 s⁻¹; the kon stood at 3.22e+06 M⁻¹ s⁻¹.

B7: 38E4v7 CHO (bispecific antibody)
anti-CD20 arm heavy chain: EVQLVESGGGLVQPGGSLRLSCAASGYTFTSYNMHWVRQAPGKGLEWVGAIYPGNGDTSYNQKFKGRFTISVDKSKNTLYLQMNSLRAEDTAVYYCARVVYYSNSYWYFDVWGQGTLVTVSS
anti-CD20 arm light chain: DIQMTQSPSSLSASVGDRVTITCRASSSVSYMHWYQQKPGKAPKPLIYAPSNLASGVPSRFSGSGSGTDFTLTISSLQPEDFATYYCQQWSFNPPTFGQGTKVEIK
anti-CD3 arm heavy chain: EVQLVQSGAEVKKPGASVKVSCKASGFTFTSYYIHWVRQAPGQGLEWIGWIYPENDNTKYNEKFKDRVTITADTSTSTAYLELSSLRSEDTAVYYCARDGYSRYAFDYWGQGTLVTVSS
anti-CD3 arm light chain: DIVMTQSPDSLAVSLGERATINCKSSQSLLNSRTRKNYLAWYQQKPGQSPKLLIYWTSTRKSGVPDRFSGSGSGTDFTLTISSLQAEDVAVYYCKQSFILRTFGQGTKVEIK
notes: also called CD3/CD20 TDB 2H7v16/38E4v7
For B7, the EC50 in assay [2] is 22.6 µg/mL and ~147 nM. For the same molecule, in assay [3], the Kd came out at 254 nM, the koff was 0.29 s⁻¹ and the kon worked out at 1.14e+06 M⁻¹ s⁻¹.

B8: 38E4v3 CHO (bispecific antibody)
anti-CD20 arm heavy chain: EVQLVESGGGLVQPGGSLRLSCAASGYTFTSYNMHWVRQAPGKGLEWVGAIYPGNGDTSYNQKFKGRFTISVDKSKNTLYLQMNSLRAEDTAVYYCARVVYYSNSYWYFDVWGQGTLVTVSS
anti-CD20 arm light chain: DIQMTQSPSSLSASVGDRVTITCRASSSVSYMHWYQQKPGKAPKPLIYAPSNLASGVPSRFSGSGSGTDFTLTISSLQPEDFATYYCQQWSFNPPTFGQGTKVEIK
anti-CD3 arm heavy chain: EVQLVQSGAEVKKPGASVKVSCKASGFTFTSYYIHWVRQAPGQGLEWIGWIYPENDNTKYNEKFKDRVTITADTSTSTAYLELSSLRSEDTAVYYCARDGYSRYYFDYWGQGTLVTVSS
anti-CD3 arm light chain: DIVMTQSPDSLAVSLGERATINCKSSQSLLNSRTRKNYLAWYQQKPGQSPKLLIYWTSTRKSGVPDRFSGSGSGTDFTLTISSLQAEDVAVYYCKQSFALRTFGQGTKVEIK
notes: also called CD3/CD20 TDB 2H7v16/38E4v3
As for B8, the EC50 in assay [2] is 0.29 µg/mL and ~1.9 nM. In assay [3], the Kd was 3.21 nM and 3.2 nM; the koff is 0.016 s⁻¹; the kon was found to be 4.98e+06 M⁻¹ s⁻¹.

B9: hu38E4.v1 H3 mutant R99A (Fab, V domains shown)
VH: EVQLVQSGAEVKKPGASVKVSCKASGFTFTSYYIHWVRQAPGQGLEWIGWIYPENDNTKYNEKFKDRVTITADTSTSTAYLELSSLRSEDTAVYYCARDGYSAYYFDYWGQGTLVTVSS
VL: DIVMTQSPDSLAVSLGERATINCKSSQSLLNSRTRKNYLAWYQQKPGQSPKLLIYWTSTRKSGVPDRFSGSGSGTDFTLTISSLQAEDVAVYYCKQSFILRTFGQGTKVEIK
notes: copies: 1 + 1
As to B9, the binding result in assay [1] is “no binding (tested: 250 nM CD3εγ (p-1386; not on the sheet))”.

B10: hu38E4.v1 H3 mutant Y97A (Fab, V domains shown)
VH: EVQLVQSGAEVKKPGASVKVSCKASGFTFTSYYIHWVRQAPGQGLEWIGWIYPENDNTKYNEKFKDRVTITADTSTSTAYLELSSLRSEDTAVYYCARDGASRYYFDYWGQGTLVTVSS
VL: DIVMTQSPDSLAVSLGERATINCKSSQSLLNSRTRKNYLAWYQQKPGQSPKLLIYWTSTRKSGVPDRFSGSGSGTDFTLTISSLQAEDVAVYYCKQSFILRTFGQGTKVEIK
notes: copies: 1 + 1
With B10, the binding result in assay [1] was “no binding (tested: 250 nM CD3εγ (p-1386; not on the sheet))”.
